Measured values published in US20170165337A1 (IMMATICS BIOTECHNOLOGIES, published 2017).

Target: T1, HLA-A*02:01 (human)
T1 construct: MHC class I monomer of the UV-ligand exchange assay; also called peptide-receptive MHC molecules; MHC class I
Test: UV peptide-exchange ELISA
Procedure, shortened: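 Peptide-MHC complexes formed by UV-mediated exchange of a UV-cleavable peptide for the test peptide; exchange yield quantified by β2m ELISA. Diluted 100-fold, captured on streptavidin-coated plates 1 h at 37 °C, detected with HRP anti-β2m and TMB at 450 nm against refolded HLA-A*02:01 monomer standards (15-500 ng/ml).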

Peptide exchange yield, 20 to 50%:
VLIEDELEEL
GVMDVNTAL
HQIEAVDGEEL
ILGYMAHEHKV
LLFATQITL

Peptide exchange yield, 10 to 20%:
SLIKYFLFV

Peptide exchange yield, 50 to 75%:
GLLRIIPYL
GLPSFLTEV
GLQAKIQEA
WLVGQEFEL
ALAASALPALV
GLQSGVDIGV
GQGEVLVYV
HLYPGAVTI
ILDEIGADVQA
ILDFGTFQL
VIADLGLIRV
ILDLNTYNV
ALCDTLITV
ILEPLNPLL
ILFNTQINI
ILFPLRFTL
ILIDKTSFV
ILIFHSVAL
ILNNEVFAI

Peptide exchange yield, ≥ 75%:
HLMLHTAAL
ILVVIEPLL
